Each block holds one molecule with its values, some of them ahead of it.
What was measured:
[1] = target: human TrkC expressed on HEK-293 cells (human) (UniProt Q16288); assay: cell-based or functional assay
[2] = target: human TrkA expressed on HEK-293 cells (human) (UniProt P04629); assay: cell-based or functional assay
[3] = target: human TrkB (full length), expressed on the surface of HEK-293 cells (human, UniProt Q16620 32-822); assay: cell-based or functional assay
[4] = target: T1, rhTrkB-EDC-Fc: recombinant protein that includes the extracellular domain of human TrkB fused to the Fc … (human, UniProt Q16620 32-430); assay: competition ELISA: rhTrkB-EDC-Fc binding to coated BDNF
T1 construct: bought (R&D system, Cat. No. 688-TK); also called human TrkB (ELISA); not shown: Fc region of human IgG1

[5] = target: T1, rhTrkB-EDC-Fc: recombinant protein that …; assay: ELISA on coated rhTrkB-EDC-Fc (ED50)

T1 sequence (Q16620 32-430): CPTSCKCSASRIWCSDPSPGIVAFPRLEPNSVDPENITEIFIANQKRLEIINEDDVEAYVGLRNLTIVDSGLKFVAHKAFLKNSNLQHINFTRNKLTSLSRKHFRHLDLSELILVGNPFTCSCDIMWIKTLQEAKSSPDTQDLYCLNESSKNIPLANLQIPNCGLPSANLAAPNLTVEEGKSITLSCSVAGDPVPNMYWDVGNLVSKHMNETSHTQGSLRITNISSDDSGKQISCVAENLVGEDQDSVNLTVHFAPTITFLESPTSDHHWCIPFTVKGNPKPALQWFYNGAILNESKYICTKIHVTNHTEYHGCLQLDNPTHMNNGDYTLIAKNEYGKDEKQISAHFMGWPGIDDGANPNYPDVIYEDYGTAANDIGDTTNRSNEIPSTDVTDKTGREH
Chain of human TrkB (full length), expressed on the surface of HEK-293 cells (Q16620 other isoform, or with tags, fused parts or gaps limits assumed): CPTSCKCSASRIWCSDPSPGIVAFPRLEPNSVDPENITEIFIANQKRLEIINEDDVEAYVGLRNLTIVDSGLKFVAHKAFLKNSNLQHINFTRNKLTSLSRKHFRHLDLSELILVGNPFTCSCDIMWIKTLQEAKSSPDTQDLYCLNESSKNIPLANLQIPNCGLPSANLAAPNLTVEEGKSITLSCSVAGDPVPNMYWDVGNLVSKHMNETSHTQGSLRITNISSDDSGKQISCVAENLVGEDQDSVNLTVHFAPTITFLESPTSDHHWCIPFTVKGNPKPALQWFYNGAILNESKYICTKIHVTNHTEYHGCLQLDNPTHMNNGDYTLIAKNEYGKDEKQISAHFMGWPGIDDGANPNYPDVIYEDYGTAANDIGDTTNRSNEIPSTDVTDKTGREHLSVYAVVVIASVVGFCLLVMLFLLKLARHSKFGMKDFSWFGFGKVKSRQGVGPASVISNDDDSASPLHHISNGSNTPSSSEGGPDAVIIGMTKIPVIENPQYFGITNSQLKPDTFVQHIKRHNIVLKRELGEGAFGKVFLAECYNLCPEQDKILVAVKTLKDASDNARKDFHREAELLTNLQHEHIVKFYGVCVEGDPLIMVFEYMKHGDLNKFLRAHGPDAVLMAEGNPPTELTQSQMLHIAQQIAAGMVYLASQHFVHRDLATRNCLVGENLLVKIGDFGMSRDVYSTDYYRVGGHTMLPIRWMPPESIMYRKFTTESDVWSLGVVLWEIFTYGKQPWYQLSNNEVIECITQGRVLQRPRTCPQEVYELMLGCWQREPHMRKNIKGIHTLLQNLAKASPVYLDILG
Chain of human TrkC expressed on HEK-293 cells (human) (Q16288 32-839 S70N limits assumed): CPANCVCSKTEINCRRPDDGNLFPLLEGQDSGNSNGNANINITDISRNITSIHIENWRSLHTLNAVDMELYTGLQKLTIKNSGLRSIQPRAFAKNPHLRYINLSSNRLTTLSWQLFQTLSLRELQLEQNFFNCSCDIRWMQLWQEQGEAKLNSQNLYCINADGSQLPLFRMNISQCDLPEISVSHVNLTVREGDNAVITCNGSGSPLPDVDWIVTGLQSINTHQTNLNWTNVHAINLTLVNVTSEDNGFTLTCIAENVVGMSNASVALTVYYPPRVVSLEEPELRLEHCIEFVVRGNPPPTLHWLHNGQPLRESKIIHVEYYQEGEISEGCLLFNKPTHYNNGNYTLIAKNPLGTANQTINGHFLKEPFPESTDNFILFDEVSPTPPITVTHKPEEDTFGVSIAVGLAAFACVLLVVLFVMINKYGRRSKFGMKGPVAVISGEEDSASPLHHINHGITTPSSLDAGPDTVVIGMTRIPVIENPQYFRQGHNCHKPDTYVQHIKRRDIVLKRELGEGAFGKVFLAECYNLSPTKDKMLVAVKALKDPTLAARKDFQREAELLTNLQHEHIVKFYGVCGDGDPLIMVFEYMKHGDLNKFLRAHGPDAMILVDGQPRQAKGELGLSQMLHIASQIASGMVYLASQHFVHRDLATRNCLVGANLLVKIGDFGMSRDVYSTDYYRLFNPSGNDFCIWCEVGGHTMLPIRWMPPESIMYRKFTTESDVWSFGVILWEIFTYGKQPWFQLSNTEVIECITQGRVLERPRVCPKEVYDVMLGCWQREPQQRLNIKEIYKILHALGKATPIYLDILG
Chain of human TrkA expressed on HEK-293 cells (human) (P04629 33-796 limits assumed): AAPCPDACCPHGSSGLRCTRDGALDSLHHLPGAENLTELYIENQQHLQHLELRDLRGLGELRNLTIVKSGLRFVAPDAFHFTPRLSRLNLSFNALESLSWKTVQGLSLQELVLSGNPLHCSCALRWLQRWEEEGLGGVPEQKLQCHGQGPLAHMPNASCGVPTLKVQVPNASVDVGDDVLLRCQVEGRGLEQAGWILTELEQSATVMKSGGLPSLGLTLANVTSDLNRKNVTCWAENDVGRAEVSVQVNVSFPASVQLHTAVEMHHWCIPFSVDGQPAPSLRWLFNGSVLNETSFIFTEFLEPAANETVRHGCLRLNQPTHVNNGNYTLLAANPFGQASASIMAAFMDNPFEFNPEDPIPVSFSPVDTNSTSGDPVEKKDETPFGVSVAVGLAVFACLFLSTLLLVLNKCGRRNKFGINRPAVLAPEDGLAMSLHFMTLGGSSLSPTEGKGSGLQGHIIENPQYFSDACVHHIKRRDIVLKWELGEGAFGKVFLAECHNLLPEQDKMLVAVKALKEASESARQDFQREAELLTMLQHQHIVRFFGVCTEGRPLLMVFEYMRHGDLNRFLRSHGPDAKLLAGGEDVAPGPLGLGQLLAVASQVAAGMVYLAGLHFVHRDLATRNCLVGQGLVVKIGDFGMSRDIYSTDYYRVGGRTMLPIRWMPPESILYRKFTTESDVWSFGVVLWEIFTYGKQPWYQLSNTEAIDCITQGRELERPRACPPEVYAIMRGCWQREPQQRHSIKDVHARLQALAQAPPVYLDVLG

- TrkC luciferase assay: signal at 300 ng/ml NT-3 (fold over basal) [1]: 6
Molecule: NT-3 (ligand)

- TrkA luciferase assay: signal at 300 ng/ml NGF (fold over basal) [2]: 6
Molecule: NGF (ligand)

- luciferase assay, HEK-293 cells expressing rhTrkB: signal at 200 ng/ml BDNF [3]: 6.2 fold over basal
B1: BDNF (ligand, UniProt P23560 129-247, looked up)
chain: HSDPARRGELSVCDSISEWVTAADKKTAVDMSGGTVTVLEKVPVSKGQLKQYFYETKCNPMGYTKEGCRGIDKRHWNSQCRTTQSYVRALTMDSKKRIGWRFIRIDTSCVCTLTIKRGR

- luciferase assay, HEK-293 cells expressing rhTrkB: EC50 [3]: ~0.1 nM
- IC50 [4]: 0.3 nM
- EC50 [5]: 0.017 nM
B2: 4C7 (antibody)
chain 1: QVQLVQSGAEVKKPGASVKVSCKASGYTFTNYVILWVRQAPGQGLEWMGYINPYNDGTKYNEKFKGRVTMTRDTSTSTVYMELSSLRSEDTAVYYCARLLKYRRFSYYAIDYWGQGTTVTVSS
chain 2: DIQMTQSPSSLSASVGDRVTITCRASENVYSNLAWYQQKPGKAPKLLIYAASNLQSGVPSRFSGSGSGTDFTFTISSLQPEDIATYYCQHFWGSPFTFGQGTKLEIK
